Measurements taken from PMC4346919.

Columns and labels:
Experiment in all cases: far-Western, overlay or dot blot; purified GST-fused peptides resolved by SDS-PAGE, transferred to PVDF membranes and probed with biotin-labeled ALG-2; chemiluminescence, quantified with ImageJ
[1] = target: GST-8 aa-fusion of CHERP
[2] = target: substitution of Pro with Ala at position 2, 4 or 5 (P2A, P4A or P5A) or substitution of Pro5 with Leu (P5L)
[3] = target: GST-8 aa-fusion of SET1B
[4] = target: GST-8 aa-fusion of RBM22

biotin-labeled ALG-2, sequence (O75340 whole entry): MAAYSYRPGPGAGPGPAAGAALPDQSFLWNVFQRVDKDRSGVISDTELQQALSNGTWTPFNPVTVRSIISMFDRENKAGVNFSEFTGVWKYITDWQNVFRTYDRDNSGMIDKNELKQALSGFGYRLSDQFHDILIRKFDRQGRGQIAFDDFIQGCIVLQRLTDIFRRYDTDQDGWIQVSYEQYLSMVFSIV

FW signal relative to that for Sec31A (of the signal for Sec31A) [1]: < 0.0625
relative binding activity (percent of WT) [2]: 40 to 75 % of WT
FW signal relative to that for Sec31A (of the signal for Sec31A) [3]: < 0.0625
FW signal relative to that for Sec31A (of the signal for Sec31A) [4]: < 0.0625
Substance: biotin-labeled ALG-2 (from UniProt O75340 1-191) (natural protein)
